Results: the NTF2 design screens of Basanta et al. (2020)

Experiment: protease stability score; higher = more stable; yeast display proteolysis, trypsin and chymotrypsin;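 also: relative to predicted unfolded state with 0 unfolded-like and 1 meaning tenfold more protease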

Sequence	protease stability score
REQEELMREYYEIHTHVLKTGNEDALEKLLDPNVRIHIDGKELHGMEAWEILNKRFDHIRHSHIHDFRIIGDKLHIDGRQKGVVDGVEREVHVHIVIEKIDGRWKLKSFYFR	1.2
REQEHEAKVAVDEWREDMETGDEHRLRELMDPDVRNIVGDKELHGREAVEFLITQIDHVKHIHVRHLDIQGDYIRFEGEINIHVNGRDRTLDVELYFIKINGRWHIHKLRFD	1.66
RESDEEREEFYKLLMHAYETGDERILNELMDPNVQIHQGEWHLHGRKDLRRRFKHLRIDHVDHITRDMRVVGDKIEVHGHIIVEGTVDGVRDTKSFDVHILTEKIDGQWFIKSVHIR	0.903
RETEEEIRHAHELLLEAEQTGDEHILHHMLDPNVRFQVGDKHIHGRENFMKQFRKLWEDFGVDHIEIRLKEMRVFENRVHVRGELIIRVGDKEMRTKHIEVSEKIDGKWLLHSVKFE	1.14
REWKEEMLRFLTRWNKAYKTGNEQELNKLADPNVRVDINGKQLHGRELATLIVSELRIEETHVKMDTFRIVGEKAEIDSRLEIHGVYDGVKMDTHHEVVIILRKVDGQWHLTTMEER	0.382
RHEEEVLEHWMRLYIEALLTGDEHTLHRLLDPNAKVHIDGRDVVGREEIVRWLREFWNEIRIKHLTISDLKIYGEYVHITGTLNVQVNGQTEHRRIEIDLVIIDGVFKESEVRIH	2.39
RHEERHLEEKLQRLLHAWLTGDEDELTELADPDVRLKINGQHYIGWEQFFKALTDLRREMRIHDLKIKRKEIDGDKLVLDGETDGEINGVKRLHKTEIIIIMIDGRLRRVEFRQH	0.618
RKEEDEARKFLHTYIELMRTGDEDNLKEFVDPHVRLEVGDKRVVGWDRYVENVVELIEKVPNLRIHIDSVRAIGNWLHVDGTLIQGDKHREIHLHLQKIDGRWILTHQHVR	1.34
RKEEEDLHKLLEHLSENYWTGNEEMFNHLADPHTRFEIRIGEFTIEDHGRERIKELVEWLLRFLGANHSHLTSIRVVGDKFHVNSLIHVDGREHTLHIIFVFINGRLTHYSMEVR	1.35
RQEEHDMEYAREIVERVLDTGDEHLMEEYFDPNAKLRIGDKEDHGREVFAHWVREIRVRHVQLTDHRLVGDKLEFDIELDININGREHRTKVHLIIRKVNGKWFIQHVEIR	1.19
RSEEHEAKDKVREWVEAYLTGDEDHLRRLHDPDMRFNWNGVEIHGMEEFSHWMHKYMYELGVDHTHVTVRHIEFYGDKIHADTKLFIRQGDKEREHHSQVHIEVINGQFKRLEIREH	0.829
SAEEHAQRVILELLIEAYETGDEDMLRRLFDPNVRIEIGDKDFVGREDFDHLLERVKNVVFHEIRLRDVKVYNGKVEDNGEINIRYGDKSRTHQVKIVMIKVDGRWMLHDFEIK	1.96
SDAERHSQEVLRLWIKAAKTGDEDKFRNYIDPHVRVEINGKEIHGRDILLEEMRRRDVIRHVRVTDSRHYDGVVIMDVEVDGHVNGRDVETQTTSFIIKIDGKWVWQSFVQI	0.98
SDDEEDVWRMAEIILKLFYTGDEEKFRNLADPNVRLNFNGRNFIGRENLEKHLRELRIHRIELREMDLKVINGRAEVRVRGFVDGEIDGQRYHSEVRLIMIITKVDGRWIIESIEFEQL	2.59
SDDEEEVLRLMDHILHALWTGDWKHLEENMDPNVRSHINGQDVHGMERVVEFILRELKELRFEHLHIEHVEIIGNKATLHYRVDGHINGRRINRRVHLEVTMVNGRVKQVIFFNE	2.08
SDDEHAAHLIIFIWTFALITGDEQTLKELLDPNVKNEFNGVELHGREQVEEHVRRYDWVTDFKFRVDDIQHQGEKIILDGTLVITMEFDGRREDIKSRFILIVRKVDGKWHLERLIIV	1.86
SDDEQNVRDTFTEFVESMETGDEDHMLEMVDPHVRIEFENHSHIGRDNVHRWILFFKNATLRWKLERMHVYDGRVEIHSRMEVEVNGREIEFNIILHVRKVDGKWVIHEIRIH	1.14
SDDEREDRIAIDILLRSTETGDEDTVRHMFDPNARVDVDGREIHGRDASKLFMERVDHIHEVKIDDIKTINGRVHNEGTWYGEYGDKKSELKVHWVLLKIDGRWLIKEVRIR	1.57
SDDERLAHHLVELLLHNIETGDFRMLMHLIDPNVRIDINGVEIHGREEWHKHLRTLGFDHFELHIDSIDAFDGKVIVHTTIRIKYNGVHFEKKTHLIAEKFDGRWYMREIRER	1.55
SDDERMLHLLIKILIRAIQTGDEDTLLRQVDPHVRIDIDGRDIVGREDLIEFAKHWRFELREVNIRHMEIYGEYIHAEVEVRGKIIIGDKEVETTVDTRHIILKINGRWFFHSISVK	1.26
SDDHEEAKEALRLWVEDLLTGDEDRLRELVDPNARIEIIVNGRTIEYHGRDRVNKWTSFVLLRLGVKHSHVHEIRLIDGRVHNDLRIHQGDKDQILHLSFEKINGKWTLREVKISVV	1.39
SDDHHKAKLFNEWFKQHFDTGDEHLYKRLADPNVRIHINGVDIVGRELATHLLSHIRITHFEVHDHKVQGNKVHTDGRVHGDVNGVEERVYVELVIEKIDGRWLNHQEIWV	0.332
SDEDEDARRVMELLLELFETGNWRELSKLADPHVRMEIDGQDFHGRELFEHFVRELIEKFKGAKLELRVHTLDLINGVMYSDIHIHLNVNGRKLDIRSHFRILKIDGRWLTRSFHFK	1.25
SDEDEEMRELMERIHHAIKTGDEDLLHHMFDPNARVDIDGQIWHGREWEHFFLRKFKGLRIEIKRVHVQGDKIHFRGLDEINGVKFDSHLIIIIVNGKTHAIEIDHR	1.53
SDEDEISKHWVELLVEHIKTGDEDFLFKMFDPNVRVIIGDKIMHGRETLLDLIEKELKEAGITRFSMNLHHVDTQGDKAHSNMILDVNGVYRNVRVHFEKIDGKWHMHTWEER	1.99

Sequence	protease stability score
SDEDHEAHRMMRLFFEAQRTGDEHLVRKLVDPDVRTFYGEKHMHGRRHHVEILLEIRIHRLTITELRVYGEKVRMDIRVDEQIGDKRREVRFELHLVVIDGVLKVVSIDME	0.92
SDEDHSSHLAHRWLLEILETGDEERLLRLADPNYRLDVDGRRFIGREDLLRWMKHVVERADHIELRDHHVDNQGDKVSSDVIVNERFDGKTERYRTHIVINKFDGKWVFHRFKIK	0.928
SDEDKELEHVMKKFEDALSTGDENTLYSLLDPNVKLEIGDKEIHGMEEFVRVMKRHLHELGAKFRSITIEHWNIIGEKVRLHSKIILDFNGRDIFLNTHIVMFKFDGRWIFETFKIQ	2.23
SDEDRLNYEIAKYLLDSLRTGDWHTFRRMADPHVKIRTVINGQELRMHGMEDLMERWKLLGFDHTRVHVEHIEIQGDKAHVRGTVKININGQEHTYETDLDVQIVNGRVESINFNWL	1.14
SDEEDHWHELLERIVRLLMTGDEKTLNKLFDPNMRIIIIIGDKEIRLHGRHKFEKWVRDFLNKFKNVKIEIDDHRAVNGVVQIDGTLFIDGREHHVENNFFIVNGRITEIQIHIK	1.28
SDEEDTLESVYKLLEHIERTGDWRIWKELADPNVRVELHVNGVEITDHGREAVERLMLKFGVDHIHFKDFDHRTYNGVVHIQEDIVLNINGREIRTKREISADKVNGKWVFRSVRMKID	1.69
SDEEEDIERAIRLMHEIHETGDESVWEHLADPHVKVDFNGQERHGREDMIKIWHYLGVKHVFFRDIRVQGEFLVVHSEDNVDGKTFQIRYLVFKINGRWFLEEVEFD	0.942
SDEEEEERRIAHELRHFWETGDEDAFRDMLDPHTRLQIDINGRHFHLHGREHIVRHLSEVWNKFGVKHLKFHDHHVVNGVTHMDGEENIGDKRRRVRIIIIVVNGRVRMVRIQIE	1.45
SDEEEEVREYYEKWFHDVYTGDEDSFRDMLDPHVKVEINGKELHGRENAEKFEKRMGVDHLNIRRFHFWDGRLEIRGESEYGDKRFKTEIHAIKINGRWVVKLIRFE	0.761
SDEEEILRRLMQEYYEIFFTGNEEFLHRLADPHVRFLVNGQWYHGREQFTRMFVELLEKLGAKHIELDRHTVRIIDGRIEIIIHTTIKVDGKEHTMHIIVNVEKINGRWILRSMEMEVR	1.34
SDEEELYEILLEIELKSAMTGDWRNLKDLLDPDTRIHFNGVEIHGREHAEKHLKRYDVDKIEDVRYRDMRFQGDKARVHGEVRILLQFDGRRMEIDTTIQVINYKVNGVWIIESLHFE	1.24
SDEEENLKEWVRLMYESARTGDEDSTSHLIDPNVRIHVNGRELHGRELVLEHLRRIDHVELRIHIREVETYDGRLKVEGELREIMIFNGKRVDLRIDTVFINLKVNGRWVLKEVHII	1.34
SDEEERIRRVAEHILHLILTGDEDRWEDMMDPNVRVHIDWNGVKIHLHGREKAAEFFKRFKNIRIEIHSVRIIGEKNDSDERLHVNGQTRDLHNHIIVVNGRIEHMEIRVR	2.66
SDEEERLERVSELLLHAIETGDWRILAELADPHVRLEIGDKEIHGREIVVDLIRKEYDKYKNMRITNEDFDVQGNKTEWHVNIHIGDKEVRIHIYNVVINGKIRRRHIHIR	1.23
SDEEERLRDFVRRYMESMRTGDEDTWRTMLDPNVQVTINGRWEIGRESAYEFLWTVFTHLGVDHLELDHFHLYGEKIELDLTAFVNGQTKKVRVELIVIDGKLKSEKIHDK	1.12
SDEEERTRTAIEQLIELRLTGDEEMLHKLVDPHYRLHFIVDGRDLDFIGWRDFQRIFHEETKKFKNMRIEWRHVDIVNGVVTVHIELKIGDKRDEIDLFFFKINGRWILKSVEVHRR	1.47
SDEEESFFTMLELFVEYLHTGDEHEFKKLADPHVRSLYDGVELHGREWFIRKFREMRVKSLHFHHSDIHIINGRARARIDVRLDGEVNGVEDLTETEIRLEVHKVDGQWVFHSVEIHRK	1.33
SDEEEYTRKAIERWIKDFITGNEDLIRKFADPNTRMEWNGKEHHGMELMVKVLKREIHEIRLQKFDVHHVEIYNGRAIVHLKLHGTIDGREETLDVIIFSEKINGQWRVEQLSIR	1.39
SDEEHELREATEILLHLFLTGDEESLDNLADPNVRVDYNGVKYHGREVLSFWLHEELKHARIHIRIRSLHLVGEFLHIQGEVRIEQGEFRRRHDMHWIIEKVDGRWIIRYVLIK	1.56
SDEEHIVQVALKNYIKAVMTGDEHLFNELMDPNTRNDINGVIYHGMEEWVKSVEELGIERFTIHEVYEHDFRVYNGQVDIHVRVDREVNGRRINDEVEIVAYKVNGRWQLRSLIFR	1.39
SDEEHLAERASKEWRHSVRTGDEHQLHEMIDPHVKLIVGDKEFHGREHFLEHLKHLRIKNVDIKRIRIIGDKVEIDSELHGHVNGVEIRTREHIHIEKIDGRWVITEVIWV	0.955
SDEEHQWELAFRFWITILKTGDEDHFERLADPHYLLQIGDKHVVGREQIAREIEKYRRELGVDHSHFDVDHIQVVGDKVEIQGSLEIRVGDKSIHHTTRTIIRKVDGRWLLKKVHFG	1.23
SDEEHRREKLNRIMLEWWMTGDWKHIEHLADPNVRLEMNIGNKHLDHHGREELSRLIIELLKELGFKHSHLEHVEIQGDKFISIVRLHVNGVHFIVHIESVIINGKLTELRIEIRKV	1.21
SDEEHSLKRMWKELAHAMMTGDEHTVTELLDPHVRFEYGEFDLHGREDWLEFLREIRILIHHFEVRHINNFENHINTDGFTDIIIIIGDKDIRRRRKTQYFQVKVNGQWLFRSIHVR	1.41
SDEEHVSRIALEIDIWLKETGDEHLLRHYLDPDTRSHFNGRSVHGMDILIKILHHWRIHDLEVKRMHLVGDFVELDIRVDGTFNGRRINMEQIIHVEKIDGQWHLKEVRIH	1.54
